For experiment [1], the target named is Recombinant human FAP (R&D systems, #3715-SE) (human, UniProt Q12884 26-760). As to the kind of experiment: cell-based or functional assay.
Experiment [2] addresses T1, fibroblast activation protein (FAP) on FAP-expressing human WI-38 fibroblasts (human, UniProt Q12884 1-760).
T1 construct: Endogenous FAP on WI-38 cells (ECACC) in the FACS assay; also called human FAP
Kind of experiment: competitive FACS on WI-38 cells vs 3 nM Cy5-labeled probe; A = pIC50 >7.0. As to the method: FAP-expressing human WI-38 fibroblasts (ECACC) were cultured in EMEM including 15% fetal bovine serum, 2 mM L-Glutamine and 1% Non-essential amino acids. Cells were detached with Accutase (Biolegend, #BLD-423201) and washed in FACS buffer (PBS including 1% FBS). Cells were diluted in FACS buffer to a final concentration of 100.000 cells per ml and 200 μl of the cell suspension are transferred to a u-shaped non-binding 96-well plate (Greiner). […] Cell were washed twice with FACS buffer and resuspended in 200 μl FACS buffer. Cells were analyzed in an Attune NxT flow cytometer. Median fluorescence intensities (Cy5 channel) was calculated by Attune NxT software and plotted against peptide concentrations. Four parameter logistic (4PL) curve fitting and pIC50 calculations were performed using ActivityBase software.

*1 amine or outer side, *2 acyl side, *3 side chain or, on linkers, in order; H or OH if unused. Bridges are numbered along the chain shown (N, C = ends). Primed or numbered codes have the meaning given here. [ ]: non-standard residue; d: D form. The star is where a group is joined. mli = maleimide cyclization element: 3,4-maleimide inserted symmetrically, forming a vinyl thioether with each Cys sulfur; Ttds = 1,13-diamino-4,7,10-trioxatridecan-succinamic acid, NCCCOCCOCCOCCCNC(=O)CCC(=O)*; mli(DOTA-Ttd) = 3,4-N-(DOTA-Ttd)-maleimide bridging two Cys S atoms as vinyl thioethers; N4Ac = 6-carboxy-1,4,8,11-tetraazaundecane, NCCNCC(CNCCN)C(=O)*; Buur = n-butylaminocarbonyl blocking group, CCCCNC(=O)*; DOTA = O=C(O)CN1CCN(CC(=O)O)CCN(CC(=O)*)CCN(CC(=O)O)CC1; NODAGA = O=C(O)CN1CCN(CC(=O)O)CCN(C(CCC(=O)*)C(=O)O)CC1; Maleimide(3,4-diyl) = O=C1NC(=O)C([*:2])=C1[*:1]; Buur″ = n-butylaminocarbonyl, CCCCNC(=O)*; β3hK = NCCCC[C@H](N)CC(=O)O; Nle = CCCC[C@H](N)C(=O)O; Hexanoyl = CCCCCC(=O)*

This is an account of results in patent publication US20240115745A1 (3B PHARMACEUTICALS, published 2024).

B1: compound H-Met-[Cys-Pro-Pro-Thr-Glu-Phe-Cys]-Asp-His-Phe-Arg-Asp-NH2 (1001) (peptide)
peptide: MCPPTEFCDHFRD
HELM: PEPTIDE1{M.C.P.P.T.E.F.C.D.H.F.R.D.[am]}$PEPTIDE1,PEPTIDE1,2:R3-8:R3$$$V2.0
SMILES: CSCC[C@H](N)C(=O)N[C@H]1CSSC[C@@H](C(=O)N[C@@H](CC(=O)O)C(=O)N[C@@H](Cc2c[nH]cn2)C(=O)N[C@@H](Cc2ccccc2)C(=O)N[C@@H](CCCNC(=N)N)C(=O)N[C@@H](CC(=O)O)C(N)=O)NC(=O)[C@H](Cc2ccccc2)NC(=O)[C@H](CCC(=O)O)NC(=O)[C@H]([C@@H](C)O)NC(=O)[C@@H]2CCCN2C(=O)[C@@H]2CCCN2C1=O
For B1, in experiment [1], the “pIC50 Category (Activity), FRET-based FAP protease activity assay” value (“pIC50 Category (Activity)” for short) was > 7 pIC50. The “pIC50 Category (FACS)” value in experiment [2] is > 7 pIC50. For the molecule Hexanoyl-CPPTEFCDHFRD-NH2 (disulfide 1-7) [compound Hex-[Cys-Pro-Pro-Thr-Glu-Phe-Cys]-Asp-His-Phe-Arg-Asp-NH2 (1002)], in experiment [1], the “pIC50 Category (Activity)” value was > 7 pIC50. Further, the “pIC50 Category (FACS)” value in experiment [2] is > 7 pIC50.

B2: compound Hex-[Cys-Pro-Pro-Thr-Gln-Phe-Cys]-Asp-Lys(DOTA)-NH2 (1016) (peptide)
peptide: Hexanoyl-CPPTQFCDK(DOTA)-NH2
modifications: disulfide 1-7
SMILES: CCCCCC(=O)N[C@H]1CSSC[C@@H](C(=O)N[C@@H](CC(=O)O)C(=O)N[C@@H](CCCCNC(=O)CN2CCN(CC(=O)O)CCN(CC(=O)O)CCN(CC(=O)O)CC2)C(N)=O)NC(=O)[C@H](Cc2ccccc2)NC(=O)[C@H](CCC(N)=O)NC(=O)[C@H]([C@@H](C)O)NC(=O)[C@@H]2CCCN2C(=O)[C@@H]2CCCN2C1=O
On to B2, for which the “pIC50 Category (Activity)” value in experiment [1] is > 7 pIC50. The “pIC50 Category (FACS)” value in experiment [2] was > 7 pIC50.

B3: compound Hex-[Cys-Pro-Pro-Thr-Glu-Phe-Cys]-Asp-Lys(N4Ac)-NH2 (1021) (peptide)
peptide: Hexanoyl-CPPTEFCDK(N4Ac)-NH2
modifications: disulfide 1-7
SMILES: CCCCCC(=O)N[C@H]1CSSC[C@@H](C(=O)N[C@@H](CC(=O)O)C(=O)N[C@@H](CCCCNC(=O)C(CNCCN)CNCCN)C(N)=O)NC(=O)[C@H](Cc2ccccc2)NC(=O)[C@H](CCC(=O)O)NC(=O)[C@H]([C@@H](C)O)NC(=O)[C@@H]2CCCN2C(=O)[C@@H]2CCCN2C1=O
For the molecule B3, the “pIC50 Category (Activity)” value in experiment [1] is > 7 pIC50. Moreover, the “pIC50 Category (FACS)” value in experiment [2] is > 7 pIC50.

B4: compound Buur-[Cys-Pro-Pro-Thr-Glu-Phe-Cys]-Asp-Lys(DOTA)-NH2 (1015) (peptide)
peptide: Buur-CPPTEFCDK(DOTA)-NH2
modifications: disulfide 1-7
SMILES: CCCCNC(=O)N[C@H]1CSSC[C@@H](C(=O)N[C@@H](CC(=O)O)C(=O)N[C@@H](CCCCNC(=O)CN2CCN(CC(=O)O)CCN(CC(=O)O)CCN(CC(=O)O)CC2)C(N)=O)NC(=O)[C@H](Cc2ccccc2)NC(=O)[C@H](CCC(=O)O)NC(=O)[C@H]([C@@H](C)O)NC(=O)[C@@H]2CCCN2C(=O)[C@@H]2CCCN2C1=O
For the molecule B4, in experiment [1], the “pIC50 Category (Activity)” value is > 7 pIC50. Further, the “pIC50 Category (FACS)” value in experiment [2] was > 7 pIC50.

B5: compound Hex-[Cys-Pro-Pro-Thr-Glu-Phe-Cys]-Asp-Lys(NODAGA)-NH2 (1020) (peptide)
peptide: Hexanoyl-CPPTEFCDK(NODAGA)-NH2
modifications: disulfide 1-7
SMILES: CCCCCC(=O)N[C@H]1CSSC[C@@H](C(=O)N[C@@H](CC(=O)O)C(=O)N[C@@H](CCCCNC(=O)CCC(C(=O)O)N2CCN(CC(=O)O)CCN(CC(=O)O)CC2)C(N)=O)NC(=O)[C@H](Cc2ccccc2)NC(=O)[C@H](CCC(=O)O)NC(=O)[C@H]([C@@H](C)O)NC(=O)[C@@H]2CCCN2C(=O)[C@@H]2CCCN2C1=O
Turning to B5, the “pIC50 Category (Activity)” value in experiment [1] is > 7 pIC50. Also, the “pIC50 Category (FACS)” value in experiment [2] is > 7 pIC50.

B6: compound Hex-[Cys-Pro-Pro-Thr-Glu-Phe-Cys]-Asp-Lys(DOTA)-NH2 (1013) (peptide)
peptide: Hexanoyl-CPPTEFCDK(DOTA)-NH2
modifications: disulfide 1-7
SMILES: CCCCCC(=O)N[C@H]1CSSC[C@@H](C(=O)N[C@@H](CC(=O)O)C(=O)N[C@@H](CCCCNC(=O)CN2CCN(CC(=O)O)CCN(CC(=O)O)CCN(CC(=O)O)CC2)C(N)=O)NC(=O)[C@H](Cc2ccccc2)NC(=O)[C@H](CCC(=O)O)NC(=O)[C@H]([C@@H](C)O)NC(=O)[C@@H]2CCCN2C(=O)[C@@H]2CCCN2C1=O
In the case of B6, the “pIC50 Category (Activity)” value in experiment [1] is > 7 pIC50. In addition, in experiment [2], the “pIC50 Category (FACS)” value is > 7 pIC50.

B7: compound DOTA-Nle-[Cys-Pro-Pro-Thr-Glu-Phe-Cys]-Asp-NH2 (1004) (peptide)
peptide: CPPTEFCD
HELM: PEPTIDE1{[O=C(O)CN1CCN(CC(=O)O)CCN(CC(=O)[*:2])CCN(CC(=O)O)CC1].[Nle].C.P.P.T.E.F.C.D.[am]}$PEPTIDE1,PEPTIDE1,3:R3-9:R3$$$V2.0
SMILES: CCCC[C@H](NC(=O)CN1CCN(CC(=O)O)CCN(CC(=O)O)CCN(CC(=O)O)CC1)C(=O)N[C@H]1CSSC[C@@H](C(=O)N[C@@H](CC(=O)O)C(N)=O)NC(=O)[C@H](Cc2ccccc2)NC(=O)[C@H](CCC(=O)O)NC(=O)[C@H]([C@@H](C)O)NC(=O)[C@@H]2CCCN2C(=O)[C@@H]2CCCN2C1=O
In the case of B7, in experiment [1], the “pIC50 Category (Activity)” value was > 7 pIC50. The same measure, in the same setting: the same measure for {DOTA-Ttds}-[Nle]CPPTEFCD-NH2 (linker 2-8 via mli) [compound DOTA-Ttds-Nle-[Cys(mli)-Pro-Pro-Thr-Glu-Phe-Cys]-Asp-NH2 (2007)]: > 7 pIC50; for Hexanoyl-CPPTEFCD-NH2 (linker 1-7 via mli(DOTA-Ttd)) [compound Hex-[Cys(mli(DOTA-Ttd))-Pro-Pro-Thr-Glu-Phe-Cys]-Asp-NH2 (2020)]: > 7 pIC50.

{DOTA-Ttds}-[Nle]CPPTEFCD-NH2 (disulfide 2-8) [compound DOTA-Ttds-Nle-[Cys-Pro-Pro-Thr-Glu-Phe-Cys]-Asp-NH2 (1003)]: in experiment [1], the “pIC50 Category (Activity)” value is > 7 pIC50.

B8: compound Buur-[Cys-Pro-Pro-Thr-Glu-Phe-Cys]-Bhk(DOTA)-OH (1014) (peptide)
peptide: {Buur″}-CPPTEFC[β3hK](DOTA)-OH
modifications: disulfide 1-7
SMILES: CCCCNC(=O)N[C@H]1CSSC[C@@H](C(=O)N[C@@H](CCCCNC(=O)CN2CCN(CC(=O)O)CCN(CC(=O)O)CCN(CC(=O)O)CC2)CC(=O)O)NC(=O)[C@H](Cc2ccccc2)NC(=O)[C@H](CCC(=O)O)NC(=O)[C@H]([C@@H](C)O)NC(=O)[C@@H]2CCCN2C(=O)[C@@H]2CCCN2C1=O
Regarding B8, the “pIC50 Category (Activity)” value in experiment [1] is > 7 pIC50. In experiment [2], the “pIC50 Category (FACS)” value is > 7 pIC50.

B9: compound Hex-[Cys-Pro-Pro-Thr-Glu-Phe-Cys]-Bhk(DOTA)-OH (1012) (peptide)
peptide: Hexanoyl-CPPTEFC[β3hK](DOTA)-OH
modifications: disulfide 1-7
SMILES: CCCCCC(=O)N[C@H]1CSSC[C@@H](C(=O)N[C@@H](CCCCNC(=O)CN2CCN(CC(=O)O)CCN(CC(=O)O)CCN(CC(=O)O)CC2)CC(=O)O)NC(=O)[C@H](Cc2ccccc2)NC(=O)[C@H](CCC(=O)O)NC(=O)[C@H]([C@@H](C)O)NC(=O)[C@@H]2CCCN2C(=O)[C@@H]2CCCN2C1=O
Turning to B9, in experiment [1], the “pIC50 Category (Activity)” value is > 7 pIC50. The “pIC50 Category (FACS)” value in experiment [2] was > 7 pIC50.

B10: compound Hex-[Cys(mli)-Pro-Pro-Thr-Glu-Phe-Cys]-Bhk(DOTA)-OH (2011) (peptide)
peptide: Hexanoyl-CPPTEFC[β3hK](DOTA)-OH
modifications: linker 1-7 via Maleimide(3,4-diyl)
SMILES: CCCCCC(=O)N[C@H]1CSC2=C(SC[C@@H](C(=O)N[C@@H](CCCCNC(=O)CN3CCN(CC(=O)O)CCN(CC(=O)O)CCN(CC(=O)O)CC3)CC(=O)O)NC(=O)[C@H](Cc3ccccc3)NC(=O)[C@H](CCC(=O)O)NC(=O)[C@H]([C@@H](C)O)NC(=O)[C@@H]3CCCN3C(=O)[C@@H]3CCCN3C1=O)C(=O)NC2=O
For the molecule B10, in experiment [1], the “pIC50 Category (Activity)” value was > 7 pIC50. Also, the “pIC50 Category (FACS)” value in experiment [2] was > 7 pIC50.
